{"source": "patent EP0866075B1", "about": "(Arpida AG,, dated 1998)", "note": "No end group written: not given here.", "data": [{"target": "T1, enzyme I (phosphoenolpyruvate-protein phosphotransferase, EC 2.7.3.9) of the E. coli phosphotransferase system (E. coli, UniProt P08839 1-575)", "test": "cell-based or functional assay", "units": {"inhibition IC50": "µM", "uncoupling P;Ipeptide/h": "Pi/peptide/h"}, "values": [{"binder": "KGWHKRKK", "note": "[peptide 6 KGWHKRKK]", "inhibition IC50": 530, "uncoupling P;Ipeptide/h": 0.23}, {"binder": "KKFHLRK", "note": "[peptide 1 KKFHLRK]", "inhibition IC50": 150, "uncoupling P;Ipeptide/h": 0.49}, {"binder": "Ac-WHKR", "note": "[peptide 13 Ac-WHKR]", "inhibition IC50": 5800}, {"binder": "KKFDLRK", "note": "[peptide 3 KKFDLRK]", "inhibition IC50": 820, "uncoupling P;Ipeptide/h": 0.05}, {"binder": "KKWHKRKK", "note": "[peptide 8 KKWHKRKK]", "inhibition IC50": 440, "uncoupling P;Ipeptide/h": 0.215}, {"binder": "KKWHLRKR", "note": "[peptide 5 KKWHLRKR]", "inhibition IC50": 30, "uncoupling P;Ipeptide/h": 0.3}, {"binder": "KKWHRRKK", "note": "[peptide 7 KKWHRRKK]", "inhibition IC50": 300, "uncoupling P;Ipeptide/h": 0.29}, {"binder": "KKFHIRKR", "note": "[peptide 9 KKFHIRKR]", "inhibition IC50": 160, "uncoupling P;Ipeptide/h": 0.31}, {"binder": "WHKR", "note": "[peptide 12 WHKR]", "inhibition IC50": 4900}]}, {"target": "T1, enzyme I (phosphoenolpyruvate-protein …)", "test": "cell-based or functional assay", "remark": "another data set of the same source", "units": {"inhibition IC50": "µM"}, "values": [{"binder": "DGARLHYLF", "note": "[peptide 22 DGARLHYLF]", "inhibition IC50": 1200, "uncoupling Pi/peptide (x IC50/h)": "132 Pi/peptide (x IC50/h)"}, {"binder": "SGRKSTRVHHWLLVL (not fully specified (residue 11))", "note": "[peptide 15 SGRKSTRVHHWLLVL]", "inhibition IC50": 60, "uncoupling Pi/peptide (x IC50/h)": "6.6 Pi/peptide (x IC50/h)"}, {"binder": "RIHFIPRRGR", "note": "[peptide 20 RIHFIPRRGR]", "inhibition IC50": 280, "uncoupling Pi/peptide (x IC50/h)": "39.6 Pi/peptide (x IC50/h)"}, {"binder": "RHRTLF", "note": "[peptide 25 RHRTLF]", "inhibition IC50": 410}, {"binder": "RHITLF", "note": "[peptide 28 RHITLF]", "inhibition IC50": 1380}, {"binder": "RLHYLF", "note": "[peptide 21 RLHYLF]", "inhibition IC50": 375, "uncoupling Pi/peptide (x IC50/h)": "64.2 Pi/peptide (x IC50/h)"}, {"binder": "KISRHGKRGK", "note": "[peptide 18 KISRHGKRGK]", "inhibition IC50": 140, "uncoupling Pi/peptide (x IC50/h)": "1.9 Pi/peptide (x IC50/h)"}, {"binder": "MSRHRN", "note": "[peptide 29 MSRHRN]", "inhibition IC50": 760, "uncoupling Pi/peptide (x IC50/h)": "144 Pi/peptide (x IC50/h)"}, {"binder": "MRLLKTLCFGLCG", "note": "[peptide 31 MRLLKTLCFGLCG]", "inhibition IC50": 3500}, {"binder": "KISRHGRPTG", "note": "[peptide 19 KISRHGRPTG]", "inhibition IC50": 1060, "uncoupling Pi/peptide (x IC50/h)": "479 Pi/peptide (x IC50/h)"}, {"binder": "RHWSIF", "note": "[peptide 24 RHWSIF]", "inhibition IC50": 400}, {"binder": "Ac-DGARLHYLF", "note": "[peptide 23 AcDGARLHYLF]", "inhibition IC50": 7600, "uncoupling Pi/peptide (x IC50/h)": "15.2 Pi/peptide (x IC50/h)"}, {"binder": "RHYLLF", "note": "[peptide 26 RHYLLF]", "inhibition IC50": 500}, {"binder": "RHITSL", "note": "[peptide 27 RHITSL]", "inhibition IC50": 650}, {"binder": "KMSRHRKPGA", "note": "[peptide 16 KMSRHRKPGA]", "inhibition IC50": 100, "uncoupling Pi/peptide (x IC50/h)": "22.2 Pi/peptide (x IC50/h)"}, {"binder": "GLRFGKTRVHYLVLG", "note": "[peptide 14 GLRFGKTRVHYLVLG]", "inhibition IC50": 25, "uncoupling Pi/peptide (x IC50/h)": "3.2 Pi/peptide (x IC50/h)"}, {"binder": "Ac-MRLLKTLCFVGLCG (cysteine pairing not given here)", "note": "[peptide 32 AcMRLLKTLCFVGLCG]", "inhibition IC50": "> 10000"}]}]}
